According to paper doi:10.1101/2022.03.11.483953:

Target: full-length H. sapiens ROCK2 (H. sapiens), O75116
Assay: rotary shadowing electron microscopy
Details: remark: other sources report otherwise

stoichiometry N: 2
B1: full-length H. sapiens ROCK2, O75116 1-1388 (enzyme)
chain: MSRPPPTGKMPGAPETAPGDGAGASRQRKLEALIRDPRSPINVESLLDGLNSLVLDLDFPALRKNKNIDNFLNRYEKIVKKIRGLQMKAEDYDVVKVIGRGAFGEVQLVRHKASQKVYAMKLLSKFEMIKRSDSAFFWEERDIMAFANSPWVVQLFYAFQDDRYLYMVMEYMPGGDLVNLMSNYDVPEKWAKFYTAEVVLALDAIHSMGLIHRDVKPDNMLLDKHGHLKLADFGTCMKMDETGMVHCDTAVGTPDYISPEVLKSQGGDGFYGRECDWWSVGVFLYEMLVGDTPFYADSLVGTYSKIMDHKNSLCFPEDAEISKHAKNLICAFLTDREVRLGRNGVEEIRQHPFFKNDQWHWDNIRETAAPVVPELSSDIDSSNFDDIEDDKGDVETFPIPKAFVGNQLPFIGFTYYRENLLLSDSPSCRETDSIQSRKNEESQEIQKKLYTLEEHLSNEMQAKEELEQKCKSVNTRLEKTAKELEEEITLRKSVESALRQLEREKALLQHKNAEYQRKADHEADKKRNLENDVNSLKDQLEDLKKRNQNSQISTEKVNQLQRQLDETNALLRTESDTAARLRKTQAESSKQIQQLESNNRDLQDKNCLLETAKLKLEKEFINLQSALESERRDRTHGSEIINDLQGRICGLEEDLKNGKILLAKVELEKRQLQERFTDLEKEKSNMEIDMTYQLKVIQQSLEQEEAEHKATKARLADKNKIYESIEEAKSEAMKEMEKKLLEERTLKQKVENLLLEAEKRCSLLDCDLKQSQQKINELLKQKDVLNEDVRNLTLKIEQETQKRCLTQNDLKMQTQQVNTLKMSEKQLKQENNHLMEMKMNLEKQNAELRKERQDADGQMKELQDQLEAEQYFSTLYKTQVRELKEECEEKTKLGKELQQKKQELQDERDSLAAQLEITLTKADSEQLARSIAEEQYSDLEKEKIMKELEIKEMMARHKQELTEKDATIASLEETNRTLTSDVANLANEKEELNNKLKDVQEQLSRLKDEEISAAAIKAQFEKQLLTERTLKTQAVNKLAEIMNRKEPVKRGNDTDVRRKEKENRKLHMELKSEREKLTQQMIKYQKELNEMQAQIAEESQIRIELQMTLDSKDSDIEQLRSQLQALHIGLDSSSIGSGPGDAEADDGFPESRLEGWLSLPVRNNTKKFGWVKKYVIVSSKKILFYDSEQDKEQSNPYMVLDIDKLFHVRPVTQTDVYRADAKEIPRIFQILYANEGESKKEQEFPVEPVGEKSNYICHKGHEFIPTLYHFPTNCEACMKPLWHMFKPPPALECRRCHIKCHKDHMDKKEEIIAPCKVYYDISTAKNLLLLANSTEEQQKWVSRLVKKIPKKPPAPDPFARSSPRTSMKIQQNQSIRRPSRQLAPNKPS
